Test results as given in patent US20220040297A1 (Chugai, published 2022).

target: CD3ε homodimer protein (human, UniProt P07766 23-126, limits assumed); experiment: SPR Biacore T200, CD3e homodimer on CM4 chip, antibody as analyte, 25 C
Target sequence in this assay (P07766 23-126 limits assumed): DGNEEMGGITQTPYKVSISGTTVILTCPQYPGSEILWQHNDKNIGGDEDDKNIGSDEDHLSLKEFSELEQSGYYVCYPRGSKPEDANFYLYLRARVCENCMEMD
Protocol: An appropriate amount of CD3ε homodimer protein was immobilized onto Sensor chip CM4 (GE Healthcare Japan Corp.) by the amine coupling method. Then, the antibody having an appropriate concentration was injected thereto as an analyte and allowed to interact with the CD3ε homodimer protein on the sensor chip. Then, the sensor chip was regenerated by the injection of 10 mmol/L glycine-HCl (pH 1.5). The assay was conducted at 25° C., and HBS-EP+ (GE Healthcare Japan Corp.) was used as a running buffer. […] Each parameter was calculated using Biacore T200 Evaluation Software (GE Healthcare Japan Corp.).
Specifically, when the amount of the antibody comprising CE115HA000 bound was defined as X and the amount of the H chain one-amino acid altered form bound was defined as Y, a value of Z (ratio of amounts bound)=Y/X was used.

KD ratio (KD of CE115HA000/KD of altered form)	Binder
2.35	CE115HA000 G98D one-arm antibody (antibody, human IgG1, kappa, L234A L235A, N297A, name in Kabat numbering) heavy: QVQLVESGGGVVQPGRSLRLSCAASGFTFSNAWMHWVRQAPGKGLEWVAQIKAKSNNYATYYAESVKGRFTISRDDSKNSLYLQMNSLKTEDTAVYYCRYVHYDAYYGVDAWGQGTTVTVSSASTKGPSVFPLAPSSKSTSGGTAALGCLVKDYFPEPVTVSWNSGALTSGVHTFPAVLQSSGLYSLSSVVTVPSSSLGTQTYICNVNHKPSNTKVDKKVEPKSCDKTHTCPPCPAPEAAGGPSVFLFPPKPKDTLMISRTPEVTCVVVDVSHEDPEVKFNWYVDGVEVHNAKTKPREEQYASTYRVVSVLTVLHQDWLNGKEYKCKVSNKALPAPIEKTISKAKGQPREPQVYTLPPSRCELTKNQVSLSCAVKGFYPSDIAVEWESNGQPENNYKTTPPVLDSDGSFFLVSKLTVDKSRWQQGNVFSCSVMHEALHNHYTQKSLSLSPDYKDDDDK EPKSSDKTHTCPPCPAPELLGGPSVFLFPPKPKDTLMISRTPEVTCVVVDVSHEDPEVKFNWYVDGVEVHNAKTKPREEQYNSTYRVVSVLTVLHQDWLNGKEYKCKVSNKALPAPIEKTISKAKGQPREPQVCTLPPSRDELTKNQVSLWCLVKGFYPSDIAVEWESNGQPENNYKTTPPVLDSDGSFFLYSKLTVDKSRWQQGNVFSCSVMHEALHNRYTQKSLSLSP light: DIVMTQSPLSLPVTPGEPASISCRSSQSLVHSNRNTYLHWYQQKPGQAPRLLIYKVSNRFSGVPDRFSGSGSGTDFTLKISRVEAEDVGVYYCGQGTQVPYTFGQGTKLEIKRTVAAPSVFIFPPSDEQLKSGTASVVCLLNNFYPREAKVQWKVDNALQSGNSQESVTEQDSKDSTYSLSSTLTLSKADYEKHKVYACEVTHQGLSSPVTKSFNRGEC
5.66	CE115HA000 D101R one-arm antibody (antibody, human IgG1, kappa, L234A L235A, N297A, name in Kabat numbering) heavy: QVQLVESGGGVVQPGRSLRLSCAASGFTFSNAWMHWVRQAPGKGLEWVAQIKAKSNNYATYYAESVKGRFTISRDDSKNSLYLQMNSLKTEDTAVYYCRYVHYGAYYGVRAWGQGTTVTVSSASTKGPSVFPLAPSSKSTSGGTAALGCLVKDYFPEPVTVSWNSGALTSGVHTFPAVLQSSGLYSLSSVVTVPSSSLGTQTYICNVNHKPSNTKVDKKVEPKSCDKTHTCPPCPAPEAAGGPSVFLFPPKPKDTLMISRTPEVTCVVVDVSHEDPEVKFNWYVDGVEVHNAKTKPREEQYASTYRVVSVLTVLHQDWLNGKEYKCKVSNKALPAPIEKTISKAKGQPREPQVYTLPPSRCELTKNQVSLSCAVKGFYPSDIAVEWESNGQPENNYKTTPPVLDSDGSFFLVSKLTVDKSRWQQGNVFSCSVMHEALHNHYTQKSLSLSPDYKDDDDK EPKSSDKTHTCPPCPAPELLGGPSVFLFPPKPKDTLMISRTPEVTCVVVDVSHEDPEVKFNWYVDGVEVHNAKTKPREEQYNSTYRVVSVLTVLHQDWLNGKEYKCKVSNKALPAPIEKTISKAKGQPREPQVCTLPPSRDELTKNQVSLWCLVKGFYPSDIAVEWESNGQPENNYKTTPPVLDSDGSFFLYSKLTVDKSRWQQGNVFSCSVMHEALHNRYTQKSLSLSP light: DIVMTQSPLSLPVTPGEPASISCRSSQSLVHSNRNTYLHWYQQKPGQAPRLLIYKVSNRFSGVPDRFSGSGSGTDFTLKISRVEAEDVGVYYCGQGTQVPYTFGQGTKLEIKRTVAAPSVFIFPPSDEQLKSGTASVVCLLNNFYPREAKVQWKVDNALQSGNSQESVTEQDSKDSTYSLSSTLTLSKADYEKHKVYACEVTHQGLSSPVTKSFNRGEC
0.85	CE115HA000 E61Q one-arm antibody (antibody, human IgG1, kappa, L234A L235A, N297A, name in Kabat numbering) heavy: QVQLVESGGGVVQPGRSLRLSCAASGFTFSNAWMHWVRQAPGKGLEWVAQIKAKSNNYATYYAQSVKGRFTISRDDSKNSLYLQMNSLKTEDTAVYYCRYVHYGAYYGVDAWGQGTTVTVSSASTKGPSVFPLAPSSKSTSGGTAALGCLVKDYFPEPVTVSWNSGALTSGVHTFPAVLQSSGLYSLSSVVTVPSSSLGTQTYICNVNHKPSNTKVDKKVEPKSCDKTHTCPPCPAPEAAGGPSVFLFPPKPKDTLMISRTPEVTCVVVDVSHEDPEVKFNWYVDGVEVHNAKTKPREEQYASTYRVVSVLTVLHQDWLNGKEYKCKVSNKALPAPIEKTISKAKGQPREPQVYTLPPSRCELTKNQVSLSCAVKGFYPSDIAVEWESNGQPENNYKTTPPVLDSDGSFFLVSKLTVDKSRWQQGNVFSCSVMHEALHNHYTQKSLSLSPDYKDDDDK EPKSSDKTHTCPPCPAPELLGGPSVFLFPPKPKDTLMISRTPEVTCVVVDVSHEDPEVKFNWYVDGVEVHNAKTKPREEQYNSTYRVVSVLTVLHQDWLNGKEYKCKVSNKALPAPIEKTISKAKGQPREPQVCTLPPSRDELTKNQVSLWCLVKGFYPSDIAVEWESNGQPENNYKTTPPVLDSDGSFFLYSKLTVDKSRWQQGNVFSCSVMHEALHNRYTQKSLSLSP light: DIVMTQSPLSLPVTPGEPASISCRSSQSLVHSNRNTYLHWYQQKPGQAPRLLIYKVSNRFSGVPDRFSGSGSGTDFTLKISRVEAEDVGVYYCGQGTQVPYTFGQGTKLEIKRTVAAPSVFIFPPSDEQLKSGTASVVCLLNNFYPREAKVQWKVDNALQSGNSQESVTEQDSKDSTYSLSSTLTLSKADYEKHKVYACEVTHQGLSSPVTKSFNRGEC
3.61	CE115HA000 A102P one-arm antibody (antibody, human IgG1, kappa, L234A L235A, N297A, name in Kabat numbering) heavy: QVQLVESGGGVVQPGRSLRLSCAASGFTFSNAWMHWVRQAPGKGLEWVAQIKAKSNNYATYYAESVKGRFTISRDDSKNSLYLQMNSLKTEDTAVYYCRYVHYGAYYGVDPWGQGTTVTVSSASTKGPSVFPLAPSSKSTSGGTAALGCLVKDYFPEPVTVSWNSGALTSGVHTFPAVLQSSGLYSLSSVVTVPSSSLGTQTYICNVNHKPSNTKVDKKVEPKSCDKTHTCPPCPAPEAAGGPSVFLFPPKPKDTLMISRTPEVTCVVVDVSHEDPEVKFNWYVDGVEVHNAKTKPREEQYASTYRVVSVLTVLHQDWLNGKEYKCKVSNKALPAPIEKTISKAKGQPREPQVYTLPPSRCELTKNQVSLSCAVKGFYPSDIAVEWESNGQPENNYKTTPPVLDSDGSFFLVSKLTVDKSRWQQGNVFSCSVMHEALHNHYTQKSLSLSPDYKDDDDK EPKSSDKTHTCPPCPAPELLGGPSVFLFPPKPKDTLMISRTPEVTCVVVDVSHEDPEVKFNWYVDGVEVHNAKTKPREEQYNSTYRVVSVLTVLHQDWLNGKEYKCKVSNKALPAPIEKTISKAKGQPREPQVCTLPPSRDELTKNQVSLWCLVKGFYPSDIAVEWESNGQPENNYKTTPPVLDSDGSFFLYSKLTVDKSRWQQGNVFSCSVMHEALHNRYTQKSLSLSP light: DIVMTQSPLSLPVTPGEPASISCRSSQSLVHSNRNTYLHWYQQKPGQAPRLLIYKVSNRFSGVPDRFSGSGSGTDFTLKISRVEAEDVGVYYCGQGTQVPYTFGQGTKLEIKRTVAAPSVFIFPPSDEQLKSGTASVVCLLNNFYPREAKVQWKVDNALQSGNSQESVTEQDSKDSTYSLSSTLTLSKADYEKHKVYACEVTHQGLSSPVTKSFNRGEC

target: T1, CD3ε homodimer protein (human, UniProt P07766 23-126, limits assumed); experiment: SPR (Biacore T200, 25°C); CD3ε homodimer immobilized on CM4, one-arm antibody as analyte
T1 construct: also called human CD3ε homodimer protein; CD3e homodimer
T1 sequence (P07766 23-126 limits assumed): as the sequence (P07766 23-126 limits assumed) above

Kd [nM]	Binder
150	NNS6f72 (antibody, one-arm antibody) heavy: QVQLVESGGGLVQPGRSLRLSCAASGFTFSNAWMHWVRQAPGKGLEWVAQIKDKSNNYATYYAESVKGRFTISRDDSKNSIYLQMNSLKTEDTAVYYCRYVHYAAEGIWWGYYGVDAWGQGTTVTVSSASTKGPSVFPLAPSSKSTSGGTAALGCLVKDYFPEPVTVSWNSGALTSGVHTFPAVLQSSGLYSLSSVVTVPSSSLGTQTYICNVNHKPSNTKVDKKVEPKSCDKTHTCPPCPAPEAAGGPSVFLFPPKPKDTLMISRTPEVTCVVVDVSHEDPEVKFNWYVDGVEVHNAKTKPREEQYASTYRVVSVLTVLHQDWLNGKEYKCKVSNKALPAPIEKTISKAKGQPREPQVYTLPPSRCELTKNQVSLSCAVKGFYPSDIAVEWESNGQPENNYKTTPPVLDSDGSFFLVSKLTVDKSRWQQGNVFSCSVMHEALHNHYTQKSLSLSPDYKDDDDK EPKSSDKTHTCPPCPAPELLGGPSVFLFPPKPKDTLMISRTPEVTCVVVDVSHEDPEVKFNWYVDGVEVHNAKTKPREEQYNSTYRVVSVLTVLHQDWLNGKEYKCKVSNKALPAPIEKTISKAKGQPREPQVCTLPPSRDELTKNQVSLWCLVKGFYPSDIAVEWESNGQPENNYKTTPPVLDSDGSFFLYSKLTVDKSRWQQGNVFSCSVMHEALHNRYTQKSLSLSP light: DIVMTQSPLSLPVTPGEPASISCRSSQSLVHSNRNTYLHWYQQKPGQAPRLLIYKVSNRFSGVPDRFSGSGSGTDFTLKISRVEAEDVGVYYCGQGTQVPYTFGQGTKLEIKRTVAAPSVFIFPPSDEQLKSGTASVVCLLNNFYPREAKVQWKVDNALQSGNSQESVTEQDSKDSTYSLSSTLTLSKADYEKHKVYACEVTHQGLSSPVTKSFNRGEC
26	NNS6f73 (antibody, one-arm antibody) heavy: QVQLVESGGGLVQPGRSLRLSCAASGFTFSNAWMHWVRQAPGKGLEWVAQIKDKSNNYATYYAESVKGRFTISRDDSKNSIYLQMNSLKTEDTAVYYCRYVHYAAWVVGVRYYGVDAWGQGTTVTVSSASTKGPSVFPLAPSSKSTSGGTAALGCLVKDYFPEPVTVSWNSGALTSGVHTFPAVLQSSGLYSLSSVVTVPSSSLGTQTYICNVNHKPSNTKVDKKVEPKSCDKTHTCPPCPAPEAAGGPSVFLFPPKPKDTLMISRTPEVTCVVVDVSHEDPEVKFNWYVDGVEVHNAKTKPREEQYASTYRVVSVLTVLHQDWLNGKEYKCKVSNKALPAPIEKTISKAKGQPREPQVYTLPPSRCELTKNQVSLSCAVKGFYPSDIAVEWESNGQPENNYKTTPPVLDSDGSFFLVSKLTVDKSRWQQGNVFSCSVMHEALHNHYTQKSLSLSPDYKDDDDK EPKSSDKTHTCPPCPAPELLGGPSVFLFPPKPKDTLMISRTPEVTCVVVDVSHEDPEVKFNWYVDGVEVHNAKTKPREEQYNSTYRVVSVLTVLHQDWLNGKEYKCKVSNKALPAPIEKTISKAKGQPREPQVCTLPPSRDELTKNQVSLWCLVKGFYPSDIAVEWESNGQPENNYKTTPPVLDSDGSFFLYSKLTVDKSRWQQGNVFSCSVMHEALHNRYTQKSLSLSP light: DIVMTQSPLSLPVTPGEPASISCRSSQSLVHSNRNTYLHWYQQKPGQAPRLLIYKVSNRFSGVPDRFSGSGSGTDFTLKISRVEAEDVGVYYCGQGTQVPYTFGQGTKLEIKRTVAAPSVFIFPPSDEQLKSGTASVVCLLNNFYPREAKVQWKVDNALQSGNSQESVTEQDSKDSTYSLSSTLTLSKADYEKHKVYACEVTHQGLSSPVTKSFNRGEC
